Experiments:
[1] = target: murine GPC3-his protein (Sino Biological, Cat. No. 50989-M08B) (murine) (UniProt Q8CFZ4); assay: ELISA, coated murine GPC3-His
[2] = target: monkey GPC3-His protein (monkey); assay: ELISA, monkey GPC3-His coated; antibody 0.11 nM
[3] = target: monkey GPC3-His protein (monkey); assay: ELISA, monkey GPC3-His coated; antibody 2.67 nM
[4] = target: monkey GPC3-His protein (monkey); assay: ELISA, monkey GPC3-His coated; antibody 0.02 nM
[5] = target: monkey GPC3-His protein (monkey); assay: ELISA, monkey GPC3-His coated; antibody 13.33 nM
[6] = target: monkey GPC3-His protein (monkey); assay: ELISA, monkey GPC3-His coated; antibody 0.0008 nM
[7] = target: monkey GPC3-His protein (monkey); assay: ELISA, monkey GPC3-His coated; antibody 66.66 nM
[8] = target: monkey GPC3 on HEK293T-monkey GPC3 cells (monkey); assay: FACS on HEK293T-monkey GPC3 cells
[9] = target: monkey GPC3-His protein (monkey); assay: ELISA, monkey GPC3-His coated; antibody 0.53 nM
[10] = target: monkey GPC3-His protein (monkey); assay: ELISA, monkey GPC3-His coated; antibody 0.004 nM

murine GPC3-his protein (Sino Biological, Cat. No. 50989-M08B) (murine), sequence (Q8CFZ4 25-558 limits assumed): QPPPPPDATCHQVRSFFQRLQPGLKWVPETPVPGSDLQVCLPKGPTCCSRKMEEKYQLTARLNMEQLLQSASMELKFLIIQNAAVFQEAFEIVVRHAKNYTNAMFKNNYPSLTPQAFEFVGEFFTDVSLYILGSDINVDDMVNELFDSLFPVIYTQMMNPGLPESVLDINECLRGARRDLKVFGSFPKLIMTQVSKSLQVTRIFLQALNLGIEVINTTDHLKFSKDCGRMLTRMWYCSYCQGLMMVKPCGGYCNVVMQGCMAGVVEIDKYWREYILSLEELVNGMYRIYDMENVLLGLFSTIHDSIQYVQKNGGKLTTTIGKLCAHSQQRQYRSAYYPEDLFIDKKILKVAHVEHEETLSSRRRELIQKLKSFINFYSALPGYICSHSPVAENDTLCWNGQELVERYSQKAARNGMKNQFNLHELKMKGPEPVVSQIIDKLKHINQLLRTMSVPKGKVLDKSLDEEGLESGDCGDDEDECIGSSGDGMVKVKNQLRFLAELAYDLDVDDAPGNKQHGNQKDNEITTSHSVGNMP

OD450 at 0.0001 nM antibody [1] [OD450 nm] | OD450 at 0.001 nM antibody [1] [OD450 nm] | OD450 at 0.01 nM antibody [1] [OD450 nm] | OD450 at 0.1 nM antibody [1] [OD450 nm] | OD450 at 1 nM antibody [1] [OD450 nm] | OD450 at 10 nM antibody [1] [OD450 nm] | OD450 at 100 nM antibody [1] [OD450 nm] | OD450 nm [2] | OD450 nm [3] | OD450 nm [4] | OD450 nm [5] | OD450 nm [6] | OD450 nm [7] | EC50 [8] [nM] | Max MFI [8] [MFI] | OD450 nm [9] | OD450 nm [10] | Binder
0.05 | 0.06 | 0.07 | 0.13 | 0.2 | 0.79 | 0.65 | – | – | – | – | – | – | – | – | – | – | F1.57.21 human-murine chimeric antibody (antibody, human IgG1, kappa, V domains shown) VH: QVQLQQSGAELARPGASVKLSCKASGYTFTSYGISWVKQITGQGLEWIGEIYPRSESTYYNEKFKGKATLTADKSSSTAYMELRSLTSEDSAVYFCARDYGNIYSFAYWGQGTLVTVSA VL: DIQMTQSPASLSASVGETVTITCRTSENIYSYLAWYQQKQGKSPQLLVYNAKTLAEGVPSRFSGSGSGTQFSLKINSLQPEDFGSYYCQHHYGTPLTFGAGTKLELKR
0.05 | 0.06 | 0.06 | 0.58 | 0.41 | 0.86 | 0.52 | – | – | – | – | – | – | – | – | – | – | F1.73.9 human-murine chimeric antibody (antibody, human IgG1, kappa, V domains shown) VH: QVQLKQSGAELVRPGASVKLSCKASGYTFTDYYINWVKQRPGQGLEWIARIYPGSGNTYYNEKFKGKATLTAEKSSSTAYMQFSSLTSEDSAVYFCACSTYYTMDYWGQGTSVTVSS VL: QIVLTQSPAIMSASLGERVTMTCTASSGVSSSYLHWYQQKPGSSPKLWIYTTSNLASGVPARFSGSGSGTSYSLTISSMEAEDAATYYCHQYHRSPYTFGGGTKLEIKR
– | – | – | – | – | – | – | 1.75 | 2.36 | 0.911 | 2.44 | 0.116 | 2.52 | 1.7 | 34600 | 2.1 | 0.294 | hAb006LH3L1 (antibody, human IgG1, V domains shown) VH: EVQLVQSGAEVKKPGSSVKVSCKASGYTFTDYEIHWVRQAPGQGLEWMGAIDPKTGNTAYNQKFMGRVTLTADKSTSTAYMELSSLRSEDTAVYYCTRYFSFAYWGQGTLVTVSS VL: DIVMTQTPLSLPVTPGEPASISCRSSQTFVHSNGNTYLQWYLQKPGQSPQLLIYKVSNRFSGVPDRFSGSGSGTDFTLKISRVEAEDVGVYYCFQGSHVPYTFGQGTKLEIK
– | – | – | – | – | – | – | 1.74 | 2.47 | 0.707 | 2.47 | 0.101 | 2.57 | 14.8 | 37800 | 2.31 | 0.253 | hAb007LH2L1 (antibody, human IgG1, V domains shown) VH: EVQLVQSGAEVKKPGSSVKVSCKASGYTFTDYEMHWVRQAPGQGLEWMGTIDPETGNTAYNQKFKGRVTITADKSTSTAYMELSSLRSEDTAVYYCTRPYSLTYWGQGTLVTVSS VL: DIVMTQTPLSLPVTPGEPASISCRSSQSFVHSNGDTYLQWYLQKPGQSPQLLIYKVSNRFSGVPDRFSGSGSGTDFTLKISRVEAEDVGVYYCFQGSHVPYTFGQGTKLEIK
– | – | – | – | – | – | – | 1.12 | 2.39 | 0.368 | 2.39 | 0.079 | 2.55 | 13.6 | 37400 | 2.17 | 0.198 | hAb007LH3L1 (antibody, human IgG1, V domains shown) VH: EVQLVQSGAEVKKPGSSVKVSCKASGYTFTDYEMHWVRQAPGQGLEWMGTIDPETGNTAYNQKFKGRVTLTADKSTSTAYMELSSLRSEDTAVYYCTRPYSLTYWGQGTLVTVSS VL: DIVMTQTPLSLPVTPGEPASISCRSSQSFVHSNGDTYLQWYLQKPGQSPQLLIYKVSNRFSGVPDRFSGSGSGTDFTLKISRVEAEDVGVYYCFQGSHVPYTFGQGTKLEIK
– | – | – | – | – | – | – | 0.801 | 2.37 | 0.252 | 2.47 | 0.069 | 2.58 | 13.7 | 35900 | 1.95 | 0.103 | hAb007LH3L1b (antibody, human IgG1, V domains shown) VH: EVQLVQSGAEVKKPGSSVKVSCKASGYTFTDYEMHWVRQAPGQGLEWMGTIDPETGNTAYNQKFKGRVTLTADKSTSTAYMELSSLRSEDTAVYYCTRPYSLTYWGQGTLVTVSS VL: DIVMTQTPLSLPVTPGEPASISCRSSQSFVHSNRDTYLQWYLQKPGQSPQLLIYKVSNRFSGVPDRFSGSGSGTDFTLKISRVEAEDVGVYYCFQGSHVPYTFGQGTKLEIK

Source: US20260116991A1
